Assay results from patent publication US20100260765A1 (AstraZeneca / MedImmune, published 2010).

Assays:
[1] = target: T1, mouse KDR (Flk-1)/Fc (Cat. #443-KD/CF, R&D Systems, Inc.) (mouse, UniProt P35918 20-762); test: ELISA, Flk-1 coat 5 ug/mL, antibody 1 ug/mL
T1 construct: Bought reagent; also called mouse VEGFR2; KDR mouse ortholog; not shown: Fc of the bought fusion protein
In short: (§1)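 Purified antibodies tested by ELISA for cross-reactivity against coated mouse Flk-1/Fc and for binding to soluble KDR Ig4-7 domain; […]. IgG1 and IgG4 served as antibody controls.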

[2] = target: T2, soluble KDR Ig4-7 domain (human, UniProt P35968 328-764); test: ELISA, KDR Ig4-7 coat (1:1 diln.), antibody 1 ug/mL
T2 construct: domain: Ig4-7 domain; also called b-KDRIg4-7-myc-his; Ig4-7 domain of KDR; not shown: myc-his tag of the pSecTag construct
In short: as §1

[3] = target: T1, mouse KDR (Flk-1)/Fc (Cat. #443-KD/CF, …); test: ELISA, Flk-1 coat 5 ug/mL, antibody 0.01 ug/mL
In short: as §1

[4] = target: T3, human KDR (human, UniProt P35968 20-1356); test: FACS competition on 293T/human KDR transfectants; antibody 5 ug/mL first, then competitor VEGF165 50 ng/mL; bound VEGF165 detected
T3 construct: whole, on cells; also called VEGFR2; endogenously-expressed KDR in HUVEC cells
Method: (§2) Transfected cells were then seeded at 50,000 cells/well and incubated with 5 μg/mL of candidate antibody for one hour at 4° C. […] After washing, the cells were incubated with Cy5-conjugated rabbit anti-goat antibody plus 7AAD for 15 minutes at 4° C.

[5] = target: T1, mouse KDR (Flk-1)/Fc (Cat. #443-KD/CF, …); test: ELISA, Flk-1 coat 5 ug/mL, antibody 0.1 ug/mL
In short: as §1

[6] = target: T3, human KDR; test: cell-based or functional assay
[7] = target: T3, human KDR; test: FACS competition on 293T/human KDR transfectants; antibody 5 ug/mL first, then competitor VEGF165 50 ng/mL; inhibition of VEGF binding
Method: as §2

[8] = target: T4, cynomolgus KDR (cynomolgus monkey, UniProt A0A2K5VE63 20-1356); test: FACS on Cyno KDR/293T transfectants, antibody 5 ug/mL
T4 construct: whole, on cells; also called Cyno KDR
Method: The binding of purified antibodies to cell-bound cynomolgus KDR (with parental cells as negative control) was tested by FACS analysis in this assay.
Cynomolgus KDR was cloned in 3 pieces. One piece was PCR amplified from cynomolgus lung cDNA, and the remaining two pieces were PCR amplified from cynomolgus kidney cDNA. The three PCR products were inserted into pCR3.1 Bid vector. […] Transfected cells were seeded at 50,000 cells/well and incubated with 5 μg/mL of candidate antibody for one hour at 4° C. The cells were then washed and incubated with secondary antibody (Cy5-conjugated goat anti-human antibody, or Cy5-conjugated rabbit anti-goat antibody, plus 7-Amino-Actinomycin (7AAD)) for 15 minutes at 4° C. Binding between cynomolgus KDR and purified antibody was detected by FACS analysis.

[9] = target: T5, whole KDR-ECD (Cat. # 676490, Calbiochem) (human, UniProt P35968 20-764); test: ELISA, KDR-ECD coat 5 ug/mL, antibody 1 ug/mL
T5 construct: extracellular domain; Bought soluble protein; also called soluble KDR; VEGF Receptor 2 D1-7
In short: (§3)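 Coat wells with the recombinant receptor protein, add purified antibody, then detect the bound antibody by ELISA. Isotype IgG1 and IgG4 are run alongside as controls.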

[10] = target: T3, human KDR; test: cell-based or functional assay; remark: listed apart in the source
[11] = target: T3, human KDR; test: FACS titration of purified antibody on HUVEC cells (FACS Kd)
Method: The binding affinities of the purified antibodies for endogenously-expressed KDR in HUVEC cells was measured. HUVEC cells were seeded at 150,000 cells/well and incubated with titrations of purified antibody for 4 hours at 4° C. The cells were then washed and incubated with goat anti-human IgG-Fc-Cy5+5 μg/mL 7-Amino-Actinomycin (7AAD) for 30 minutes at 4° C. Bound KDR was detected using FACS analysis.

[12] = target: T2, soluble KDR Ig4-7 domain; test: ELISA, KDR Ig4-7 coat (1:1 diln.), antibody 0.01 ug/mL
In short: as §1

[13] = target: T3, human KDR; test: cell-based or functional assay; remark: listed apart in the source
[14] = target: T2, soluble KDR Ig4-7 domain; test: ELISA, KDR Ig4-7 coat (1:1 diln.), antibody 0.1 ug/mL
In short: as §1

[15] = target: T5, whole KDR-ECD (Cat. # 676490, …); test: ELISA, KDR-ECD coat 5 ug/mL, antibody 0.01 ug/mL
In short: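 Purified antibodies were tested by ELISA for binding to immobilised target protein to assess cross-reactivity with the mouse ortholog and binding to the soluble Ig4-7 fragment. IgG1 and IgG4 isotype antibodies served as controls.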

[16] = target: T5, whole KDR-ECD (Cat. # 676490, …); test: ELISA, KDR-ECD coat 5 ug/mL, antibody 0.1 ug/mL
In short: as §3

T1 sequence (P35918 20-762 limits assumed): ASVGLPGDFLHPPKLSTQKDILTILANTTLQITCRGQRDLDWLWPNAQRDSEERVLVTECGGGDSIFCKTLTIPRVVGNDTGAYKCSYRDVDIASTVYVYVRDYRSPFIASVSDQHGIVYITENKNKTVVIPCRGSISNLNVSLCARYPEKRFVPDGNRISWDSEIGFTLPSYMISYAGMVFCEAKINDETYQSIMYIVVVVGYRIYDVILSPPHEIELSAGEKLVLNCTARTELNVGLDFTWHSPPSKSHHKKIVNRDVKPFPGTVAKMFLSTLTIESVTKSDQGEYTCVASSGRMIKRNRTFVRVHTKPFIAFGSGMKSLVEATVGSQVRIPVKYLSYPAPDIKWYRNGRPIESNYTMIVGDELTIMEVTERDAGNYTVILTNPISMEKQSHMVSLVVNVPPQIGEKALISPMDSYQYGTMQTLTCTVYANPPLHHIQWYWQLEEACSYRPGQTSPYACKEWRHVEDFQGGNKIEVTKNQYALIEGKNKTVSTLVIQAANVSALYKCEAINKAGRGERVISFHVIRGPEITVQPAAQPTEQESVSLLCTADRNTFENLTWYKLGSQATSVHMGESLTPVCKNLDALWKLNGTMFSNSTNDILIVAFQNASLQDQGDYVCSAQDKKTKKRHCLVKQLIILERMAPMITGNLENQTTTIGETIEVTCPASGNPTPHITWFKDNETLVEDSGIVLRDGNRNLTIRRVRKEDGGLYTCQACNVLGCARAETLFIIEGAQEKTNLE
T2 sequence (P35968 328-764): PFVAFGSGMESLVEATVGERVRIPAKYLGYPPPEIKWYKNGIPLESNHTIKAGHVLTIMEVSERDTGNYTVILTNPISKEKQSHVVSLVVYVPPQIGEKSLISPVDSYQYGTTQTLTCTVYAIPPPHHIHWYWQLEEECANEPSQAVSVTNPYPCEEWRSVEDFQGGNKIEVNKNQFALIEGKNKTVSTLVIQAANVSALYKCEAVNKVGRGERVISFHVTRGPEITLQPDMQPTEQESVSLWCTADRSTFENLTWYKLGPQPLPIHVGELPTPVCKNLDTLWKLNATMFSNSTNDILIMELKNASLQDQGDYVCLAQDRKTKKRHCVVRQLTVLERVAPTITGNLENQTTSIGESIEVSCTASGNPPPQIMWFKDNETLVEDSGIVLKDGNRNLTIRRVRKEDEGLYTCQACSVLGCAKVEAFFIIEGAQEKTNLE
T5 sequence (P35968 20-764): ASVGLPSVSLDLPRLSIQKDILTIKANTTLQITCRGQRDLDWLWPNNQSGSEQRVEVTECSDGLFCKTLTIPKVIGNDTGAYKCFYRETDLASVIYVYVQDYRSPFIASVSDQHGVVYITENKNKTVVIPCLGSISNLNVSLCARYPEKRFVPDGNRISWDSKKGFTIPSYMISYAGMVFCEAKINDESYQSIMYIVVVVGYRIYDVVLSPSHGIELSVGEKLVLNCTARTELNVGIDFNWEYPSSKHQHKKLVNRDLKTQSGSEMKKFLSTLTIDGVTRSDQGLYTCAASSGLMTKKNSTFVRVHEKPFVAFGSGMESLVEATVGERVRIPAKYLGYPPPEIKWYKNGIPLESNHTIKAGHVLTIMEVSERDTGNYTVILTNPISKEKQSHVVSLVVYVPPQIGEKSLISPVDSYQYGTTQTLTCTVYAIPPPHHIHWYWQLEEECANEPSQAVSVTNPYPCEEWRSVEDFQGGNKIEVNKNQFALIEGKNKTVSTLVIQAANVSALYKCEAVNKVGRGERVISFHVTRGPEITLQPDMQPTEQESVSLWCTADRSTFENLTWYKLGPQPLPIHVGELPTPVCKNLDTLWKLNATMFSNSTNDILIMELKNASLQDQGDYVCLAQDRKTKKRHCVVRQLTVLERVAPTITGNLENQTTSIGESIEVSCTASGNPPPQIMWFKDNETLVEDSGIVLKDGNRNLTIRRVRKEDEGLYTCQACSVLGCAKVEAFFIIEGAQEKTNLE
T3 sequence (P35968 20-1356): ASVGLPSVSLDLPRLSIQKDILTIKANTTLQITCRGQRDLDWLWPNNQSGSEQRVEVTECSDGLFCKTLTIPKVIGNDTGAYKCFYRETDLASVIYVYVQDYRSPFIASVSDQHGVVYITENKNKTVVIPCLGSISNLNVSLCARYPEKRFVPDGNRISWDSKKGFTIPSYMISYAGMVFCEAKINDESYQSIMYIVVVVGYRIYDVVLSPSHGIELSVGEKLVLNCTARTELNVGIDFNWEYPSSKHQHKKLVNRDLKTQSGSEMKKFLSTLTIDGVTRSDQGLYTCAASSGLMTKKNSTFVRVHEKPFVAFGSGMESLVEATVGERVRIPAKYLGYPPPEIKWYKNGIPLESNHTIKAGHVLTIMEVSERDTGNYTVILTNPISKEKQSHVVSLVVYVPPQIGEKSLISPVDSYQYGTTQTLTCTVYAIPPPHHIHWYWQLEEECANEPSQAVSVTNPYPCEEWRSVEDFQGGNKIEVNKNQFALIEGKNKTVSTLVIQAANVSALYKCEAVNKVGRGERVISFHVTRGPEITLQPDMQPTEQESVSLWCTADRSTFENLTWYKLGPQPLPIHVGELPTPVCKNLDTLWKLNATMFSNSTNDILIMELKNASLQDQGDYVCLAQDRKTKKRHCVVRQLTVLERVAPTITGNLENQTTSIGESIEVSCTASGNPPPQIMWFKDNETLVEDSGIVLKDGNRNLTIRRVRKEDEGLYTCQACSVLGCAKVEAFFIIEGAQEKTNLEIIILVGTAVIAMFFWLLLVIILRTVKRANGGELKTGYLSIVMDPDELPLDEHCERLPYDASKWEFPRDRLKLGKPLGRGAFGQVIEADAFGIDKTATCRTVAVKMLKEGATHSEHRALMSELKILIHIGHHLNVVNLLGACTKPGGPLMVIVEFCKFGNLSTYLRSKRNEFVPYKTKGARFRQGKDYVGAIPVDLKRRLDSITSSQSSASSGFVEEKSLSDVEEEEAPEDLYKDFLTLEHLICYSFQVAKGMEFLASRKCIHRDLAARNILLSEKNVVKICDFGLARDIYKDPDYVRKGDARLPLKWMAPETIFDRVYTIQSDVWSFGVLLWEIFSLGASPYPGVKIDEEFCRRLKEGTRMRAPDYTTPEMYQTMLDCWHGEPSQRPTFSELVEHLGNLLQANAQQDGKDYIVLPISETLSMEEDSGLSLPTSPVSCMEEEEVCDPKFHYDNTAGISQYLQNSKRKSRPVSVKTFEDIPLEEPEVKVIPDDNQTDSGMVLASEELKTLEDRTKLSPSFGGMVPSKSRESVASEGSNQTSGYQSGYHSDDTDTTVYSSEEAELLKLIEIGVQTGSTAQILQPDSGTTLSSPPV
T4 sequence (A0A2K5VE63 entry or part of it): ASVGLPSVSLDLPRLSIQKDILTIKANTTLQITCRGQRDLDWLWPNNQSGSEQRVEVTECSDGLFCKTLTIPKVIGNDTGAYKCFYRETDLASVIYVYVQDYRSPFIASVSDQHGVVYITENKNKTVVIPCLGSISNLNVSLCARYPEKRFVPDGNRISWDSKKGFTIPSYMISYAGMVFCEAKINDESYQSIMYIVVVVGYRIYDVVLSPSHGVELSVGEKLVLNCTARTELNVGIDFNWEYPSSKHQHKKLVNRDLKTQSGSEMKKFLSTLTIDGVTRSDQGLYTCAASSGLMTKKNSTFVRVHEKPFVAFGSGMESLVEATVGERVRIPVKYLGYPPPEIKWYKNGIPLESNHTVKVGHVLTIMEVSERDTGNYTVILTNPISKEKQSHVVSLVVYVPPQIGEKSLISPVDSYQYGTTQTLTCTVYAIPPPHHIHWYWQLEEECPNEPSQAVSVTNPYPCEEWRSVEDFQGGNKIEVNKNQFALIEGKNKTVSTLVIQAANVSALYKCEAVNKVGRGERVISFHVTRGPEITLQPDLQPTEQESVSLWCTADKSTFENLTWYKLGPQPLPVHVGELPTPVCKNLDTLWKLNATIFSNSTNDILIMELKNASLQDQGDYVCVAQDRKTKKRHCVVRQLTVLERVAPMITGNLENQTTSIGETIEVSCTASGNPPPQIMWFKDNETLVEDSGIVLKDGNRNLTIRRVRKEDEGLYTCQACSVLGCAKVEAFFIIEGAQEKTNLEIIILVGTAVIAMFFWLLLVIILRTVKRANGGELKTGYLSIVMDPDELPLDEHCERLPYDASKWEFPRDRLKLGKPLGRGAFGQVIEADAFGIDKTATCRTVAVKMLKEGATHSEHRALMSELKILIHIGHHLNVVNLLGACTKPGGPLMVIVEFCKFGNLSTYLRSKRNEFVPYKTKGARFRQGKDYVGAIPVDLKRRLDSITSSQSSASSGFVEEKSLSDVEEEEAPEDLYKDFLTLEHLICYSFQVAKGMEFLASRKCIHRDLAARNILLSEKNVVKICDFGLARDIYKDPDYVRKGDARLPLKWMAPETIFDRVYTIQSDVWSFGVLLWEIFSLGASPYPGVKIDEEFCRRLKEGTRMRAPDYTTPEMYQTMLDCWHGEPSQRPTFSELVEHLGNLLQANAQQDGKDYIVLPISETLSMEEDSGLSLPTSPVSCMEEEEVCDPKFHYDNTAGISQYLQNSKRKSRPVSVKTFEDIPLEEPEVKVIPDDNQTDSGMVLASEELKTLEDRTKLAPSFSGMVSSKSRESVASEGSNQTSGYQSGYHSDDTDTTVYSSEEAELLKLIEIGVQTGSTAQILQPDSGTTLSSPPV

| Binder | ELISA reading [1] | ELISA reading [2] | ELISA reading [3] | FACS Geometric Mean Fluorescence (bound VEGF165) [4] | ELISA reading [5] | % Inhibition [7] | FACS Geometric Mean Fluorescence [8] | ELISA reading [9] | KDR tyrosine phosphorylation in HUVEC, EC50 (nM), Average [10] | KDR tyrosine phosphorylation in HUVEC, EC50 (nM), N = 1 [10] | KDR tyrosine phosphorylation in HUVEC, EC50 (nM), N = 2 [10] | KDR tyrosine phosphorylation in HUVEC, Maximum Inhibition at 100 nM (% Inhibition), Average [10] | KDR tyrosine phosphorylation in HUVEC, Maximum Inhibition at 100 nM (% Inhibition), N = 1 [10] | KDR tyrosine phosphorylation in HUVEC, Maximum Inhibition at 100 nM (% Inhibition), N = 2 [10] | Kd [11] | ELISA reading [12] | 6-keto Prostaglandin F1α release, EC50 (nM), Average [13] | HUVEC survival, Maximum Inhibition at 50 nM (% Inhibition), Average [6] | HUVEC survival, Maximum Inhibition at 50 nM (% Inhibition), N = 1 [6] | HUVEC survival, Maximum Inhibition at 50 nM (% Inhibition), N = 2 [6] | also measured |
| --- | --- | --- | --- | --- | --- | --- | --- | --- | --- | --- | --- | --- | --- | --- | --- | --- | --- | --- | --- | --- | --- |
| 22B8 (antibody, V domains shown, Fully human monoclonal antibody from a XenoMouse hybridoma (IgG2 or IgG4 strain), purified) VH: QLQLQESGPGLVKPSETLSLTCTVSGGSISSRYYYWGWVRQPPGKGLEWIGTIYYSGHTYYNPSLKTRVTISVDTSKNQFSLKLISVTAADTAVYYCATQQLVLYYFDFWGQGTLVTVSS VL: EIVLTQSPGTLSLSPGERAALSCRASQSISSSYLAWYQQRPGQAPRLLIYGASSRATGIPDRFNGSGSGTDFTLTISRLEPEDFAVYYCQQFGSSITFGQGTRLEIK | 3.21 | 0.08 | 1.2 | 120 | 2.94 | 7% | 103 | 1.91 | 3.1 nM | 2.7 nM | 3.4 nM | 77% | 75% | 79% | 1.8 nM | 0.074 | 5.3 nM | 87% | 80% | 95% | 6-keto Prostaglandin F1α release, EC50 (nM), N = 1 [13]: 5.1 nM; 6-keto Prostaglandin F1α release, EC50 (nM), N = 2 [13]: 5.6 nM; 6-keto Prostaglandin F1α release, Maximum Inhibition (% Inhibition), Average [13]: 70%; 6-keto Prostaglandin F1α release, Maximum Inhibition (% Inhibition), N = 1 (200 nM) [13]: 63%; 6-keto Prostaglandin F1α release, Maximum Inhibition (% Inhibition), N = 2 (333 nM) [13]: 76%; ELISA reading [14]: 0.078; ELISA reading [15]: 0.075; ELISA reading [16]: 0.089 |
| 31E11 (antibody, V domains shown, Fully human monoclonal antibody from a XenoMouse hybridoma (IgG2 or IgG4 strain), purified) VH: QVQLVESGGGLVKPGGSLRLSCAASGFTFSDYYMSWIRQAPGKGLEWVSYISISGSTIYYADSVKGRFTISRDNAKNSLYLQMNSLRAEDTAVYYCARDDFWSGYYFNWFDPWGQGTLVTVSS VL: DIQMTQSPSSLSASVGDRVTITCRANQTISTFLNWYQQNPGKAPKLLIYAASSLQSGVPSRFSGSGSGTDFTLTISSLQPEDFATYYCQQTYIIPLTFGGGTKVEIK | 3.1 | 0.107 | 0.826 | 138 | 2.37 | -8% | 99.5 | 1.96 | 1.9 nM | 2 nM | 1.9 nM | 85% | 84% | 86% | 11.3 nM | 0.072 | 6.2 nM | 101% | 101% | 101% | 6-keto Prostaglandin F1α release, EC50 (nM), N = 1 [13]: 6.1 nM; 6-keto Prostaglandin F1α release, EC50 (nM), N = 2 [13]: 6.4 nM; 6-keto Prostaglandin F1α release, Maximum Inhibition (% Inhibition), Average [13]: 98%; 6-keto Prostaglandin F1α release, Maximum Inhibition (% Inhibition), N = 1 (200 nM) [13]: 88%; 6-keto Prostaglandin F1α release, Maximum Inhibition (% Inhibition), N = 2 (333 nM) [13]: 108%; ELISA reading [14]: 0.073; ELISA reading [15]: 0.08; ELISA reading [16]: 0.161 |

More lines, main results first:

| ELISA reading [1] | ELISA reading [2] | ELISA reading [3] | FACS Geometric Mean Fluorescence (bound VEGF165) [4] | ELISA reading [5] | % Inhibition [7] | FACS Geometric Mean Fluorescence [8] | ELISA reading [9] | KDR tyrosine phosphorylation in HUVEC, EC50 (nM), Average [10] | KDR tyrosine phosphorylation in HUVEC, EC50 (nM), N = 1 [10] | KDR tyrosine phosphorylation in HUVEC, EC50 (nM), N = 2 [10] | KDR tyrosine phosphorylation in HUVEC, Maximum Inhibition at 100 nM (% Inhibition), Average [10] | KDR tyrosine phosphorylation in HUVEC, Maximum Inhibition at 100 nM (% Inhibition), N = 1 [10] | KDR tyrosine phosphorylation in HUVEC, Maximum Inhibition at 100 nM (% Inhibition), N = 2 [10] | Kd [11] | ELISA reading [12] | 6-keto Prostaglandin F1α release, EC50 (nM), Average [13] | Binder | HUVEC survival, Maximum Inhibition at 50 nM (% Inhibition), Average [6] | HUVEC survival, Maximum Inhibition at 50 nM (% Inhibition), N = 1 [6] | HUVEC survival, Maximum Inhibition at 50 nM (% Inhibition), N = 2 [6] | also measured |
| --- | --- | --- | --- | --- | --- | --- | --- | --- | --- | --- | --- | --- | --- | --- | --- | --- | --- | --- | --- | --- | --- |
| 2.17 | 0.107 | 0.846 | 147 | 1.47 | -15% | 88.5 | 1.38 | 5.5 nM | 5.8 nM | 5.1 nM | 74% | 73% | 75% | 3.8 nM | 0.067 | 5.1 nM | 33E1 (antibody, V domains shown, Fully human monoclonal antibody from a XenoMouse hybridoma (IgG2 or IgG4 strain), purified) VH: QVQLQESGPGLVKPSQTLSLTCTVSGGSISSGDHYWSWIRQHPGKGLEWIGHIYYSGSTDYNPSLKSRVTISVDTSKNHFSLKLNSVTAADTAVYYCARTNSSSWSDWYFDLWGRGTLVTVSS VL: DIVMTQSPDSLAVSLGERATINCKSSQSILYSSNNKNYLAWYQRKPGQPPILLIHWASTRESGVPDRFSGSGSRTDFTLTISSLQAEDVAVYYCQQYFITPWTFGQGTKVEIK | 103% | 107% | 99% | 6-keto Prostaglandin F1α release, EC50 (nM), N = 1 [13]: 4.8 nM; 6-keto Prostaglandin F1α release, EC50 (nM), N = 2 [13]: 5.4 nM; 6-keto Prostaglandin F1α release, Maximum Inhibition (% Inhibition), Average [13]: 90%; 6-keto Prostaglandin F1α release, Maximum Inhibition (% Inhibition), N = 1 (200 nM) [13]: 77%; 6-keto Prostaglandin F1α release, Maximum Inhibition (% Inhibition), N = 2 (333 nM) [13]: 103%; ELISA reading [14]: 0.074; ELISA reading [15]: 0.081; ELISA reading [16]: 0.205 |
| 3.48 | 0.094 | 1.25 | 126 | 3.04 | 2% | 108 | 1.11 | 1.2 nM | 1.2 nM | 1.1 nM | 85% | 83% | 86% | 1 nM | 0.073 | 3.9 nM | 33C3 (antibody, V domains shown, Fully human monoclonal antibody from a XenoMouse hybridoma (IgG2 or IgG4 strain), purified) VH: QVQLVESGGGLVKPGESLRLSCAASGFTFSDYYMSWIRQAPGKGLEWVSYISHGGSTIYYADSVKGRFTISRDNAKNSLYLQMNSLRVEDTAVYFCARDDFWSGYYFNWFDPWGQGALVTVSS VL: DIQMTQYPLSLSASVGDRVTITCRASQSISSFLNWYHQKPGKAPKLLIYGTSSLQSGVPSRFSGSGSGTDFTLTISSLQPEDFATYYCQQTYSIPLTFGGGTNVEIK | 101% | 106% | 95% | 6-keto Prostaglandin F1α release, EC50 (nM), N = 1 [13]: 3.5 nM; 6-keto Prostaglandin F1α release, EC50 (nM), N = 2 [13]: 4.4 nM; 6-keto Prostaglandin F1α release, Maximum Inhibition (% Inhibition), Average [13]: 85%; 6-keto Prostaglandin F1α release, Maximum Inhibition (% Inhibition), N = 1 (200 nM) [13]: 76%; 6-keto Prostaglandin F1α release, Maximum Inhibition (% Inhibition), N = 2 (333 nM) [13]: 94%; ELISA reading [14]: 0.088; ELISA reading [15]: 0.09; ELISA reading [16]: 0.153 |
